The assay has as its target albumin (on albumin-functionalized agarose resin) (UniProt P07724). The assay can be described thus: pull-down; AF647-labelled eOD or amph-eOD incubated with albumin-functionalized agarose resin for 2 hours at 37°C; resin separated and protein remaining in solution measured.

These results are taken from publication PMC9835395.

Sequence of UniProt P07724 (P07724 25-608): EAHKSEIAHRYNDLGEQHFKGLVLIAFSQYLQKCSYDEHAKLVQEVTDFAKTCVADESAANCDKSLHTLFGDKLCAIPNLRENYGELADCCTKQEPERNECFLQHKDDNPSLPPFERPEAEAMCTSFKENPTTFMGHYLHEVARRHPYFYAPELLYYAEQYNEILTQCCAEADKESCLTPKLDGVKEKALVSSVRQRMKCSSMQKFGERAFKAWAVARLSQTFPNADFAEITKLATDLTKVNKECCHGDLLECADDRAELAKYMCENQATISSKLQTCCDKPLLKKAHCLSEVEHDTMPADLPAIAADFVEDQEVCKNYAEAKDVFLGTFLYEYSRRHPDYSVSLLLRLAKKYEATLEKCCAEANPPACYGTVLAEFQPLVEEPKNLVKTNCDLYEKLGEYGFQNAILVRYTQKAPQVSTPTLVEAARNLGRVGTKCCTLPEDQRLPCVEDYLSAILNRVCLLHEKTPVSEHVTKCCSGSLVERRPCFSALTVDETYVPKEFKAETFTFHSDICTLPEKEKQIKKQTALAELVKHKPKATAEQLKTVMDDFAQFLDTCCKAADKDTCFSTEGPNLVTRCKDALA

For “amph-eOD (eOD-GT8 with N-terminal cysteine and C-terminal PADRE, conjugated to PEG2K-DSPE)”, the percent of added protein bound to the resin came out at 60%.
